The values that follow come from article PMC10143413.

In general, Kd refers to a measure of binding affinity in units of concentration. Low values mean higher affinity, high ones lower affinity. The term koff denotes the first-order rate constant of dissociation. The low end stands for a long-lived complex, the high end for a short-lived complex. Broadly, the kon is a measure of how fast the partners come together. Higher therefore signals faster complex formation.

Assay [1] addresses Pyruvate kinase PKM1, purified from rabbit skeletal muscle (rabbit) (UniProt P11974). Description: SPR; Biacore T200, 25 °C; PKM1 amine-coupled to a CM5 chip, creatine kinase as analyte in 0.05 M potassium phosphate buffer pH 7.4, 10 µL/min for 5 min; global fit to the 1:1 binding model. (In SPR one partner is held on a chip, and binding of the other changes the refractive index at the surface.)

Assay [2] deals with Lactate dehydrogenase, purified from rabbit skeletal muscle (rabbit) (UniProt P13491). Description: SPR; Biacore T200, 25 °C; GAPDH, LDH or aldolase A amine-coupled to a CM5 chip, PKM1 as analyte in 0.05 M potassium phosphate buffer pH 7.4, 10 µL/min for 5 min; global fit to the 1:1 binding model.
Assay [3] has as its target Aldolase A, purified from rabbit skeletal muscle (rabbit) (UniProt P00883). The description is as above.

Sequence of Pyruvate kinase PKM1, purified from rabbit skeletal muscle (P11974 whole entry): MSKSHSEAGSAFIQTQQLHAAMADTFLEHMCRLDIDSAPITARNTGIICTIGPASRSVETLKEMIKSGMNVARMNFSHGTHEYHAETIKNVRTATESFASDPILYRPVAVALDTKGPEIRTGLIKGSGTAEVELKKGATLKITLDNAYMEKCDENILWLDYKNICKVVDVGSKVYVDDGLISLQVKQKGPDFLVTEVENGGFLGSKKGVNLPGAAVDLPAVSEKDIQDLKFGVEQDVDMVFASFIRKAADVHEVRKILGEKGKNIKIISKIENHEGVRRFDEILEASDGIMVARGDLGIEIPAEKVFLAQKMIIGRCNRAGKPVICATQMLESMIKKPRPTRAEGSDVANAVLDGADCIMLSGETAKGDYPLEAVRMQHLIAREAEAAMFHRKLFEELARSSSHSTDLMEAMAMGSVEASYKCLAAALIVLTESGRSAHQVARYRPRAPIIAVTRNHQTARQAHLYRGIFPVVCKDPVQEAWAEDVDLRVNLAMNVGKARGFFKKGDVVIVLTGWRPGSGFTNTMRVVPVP
Sequence of Pyruvate kinase PKM1, purified from rabbit skeletal muscle, P11974-1 1-531 (enzyme; other documents disagree on this pair) (P11974 whole entry): as above
Sequence of Pyruvate kinase PKM1, purified from rabbit skeletal muscle (rabbit) (P11974 whole entry): as above
Sequence of Aldolase A, purified from rabbit skeletal muscle (rabbit) (P00883 whole entry): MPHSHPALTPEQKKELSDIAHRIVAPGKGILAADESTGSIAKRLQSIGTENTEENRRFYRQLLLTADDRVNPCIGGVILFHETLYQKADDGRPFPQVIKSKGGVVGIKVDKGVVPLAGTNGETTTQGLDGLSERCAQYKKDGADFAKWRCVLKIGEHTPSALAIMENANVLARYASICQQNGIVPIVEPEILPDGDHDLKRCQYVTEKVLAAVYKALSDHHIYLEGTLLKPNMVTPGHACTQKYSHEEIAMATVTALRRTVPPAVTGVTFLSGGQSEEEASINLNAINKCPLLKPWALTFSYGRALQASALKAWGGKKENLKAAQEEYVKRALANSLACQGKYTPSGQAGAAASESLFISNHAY

In assay [1], “Creatine kinase from rabbit muscle (from UniProt P00563 1-381) (enzyme)” came in with a Kd of 0.0107 µM, a koff of 0.000924 s⁻¹ and a kon of 86400 M⁻¹ s⁻¹.
In assay [2], “Pyruvate kinase PKM1, purified from rabbit skeletal muscle (from UniProt P11974-1 1-531) (enzyme)” displayed a Kd of 4.8 µM, a koff of 0.00657 s⁻¹ and a kon of 1370 M⁻¹ s⁻¹.
Take “Pyruvate kinase PKM1, purified from rabbit skeletal muscle, P11974-1 1-531 (enzyme; other documents disagree on this pair)”: in assay [3], the dissociation constant (Kd) was 1.41 µM, the koff was found to be 0.00238 s⁻¹ and the kon worked out at 1690 M⁻¹ s⁻¹.
